Data as given in patent US20140073768A1.

target: extracellular region of human F158 FcγRIIIa, C-terminal 6xHis-tag and GST-tag (human) (UniProt P08637); assay: SPR, receptor immobilized, antibody flowed over

Kd	Substance
0.73 µM	alemtuzumab, wild type (antibody)

target: extracellular region of human V158 FcγRIIIa, C-terminal 6xHis-tag and GST-tag (human) (UniProt P08637); assay: SPR, receptor immobilized, antibody flowed over

Kd	Substance
0.068 µM	alemtuzumab, wild type (antibody)

target: extracellular region of human V158 FcγRIIIa, C-terminal 6xHis-tag and GST-tag (human) (UniProt P08637); assay: SPR

Fold WT	Substance
384 fold	alemtuzumab E272H (antibody)
1.38 fold	alemtuzumab E272R (antibody)
5.66 fold	alemtuzumab H268D (antibody)
7.07 fold	alemtuzumab K246Y (antibody)
2.62 fold	alemtuzumab S267E (antibody)
1.86 fold	alemtuzumab T260H (antibody)
1.51 fold	alemtuzumab V284E (antibody)

Second part, the substance before the results:

Substance	Fold WT
alemtuzumab E258H (antibody)	5.5 fold
alemtuzumab E258Y (antibody)	1.77 fold
alemtuzumab E283H (antibody)	2.31 fold
alemtuzumab E283L (antibody)	2.56 fold
alemtuzumab K246H (antibody)	22.4 fold
alemtuzumab R255Y (antibody)	1.41 fold
alemtuzumab S304T (antibody)	12.8 fold

target: FcγRIIIa on human PBMCs expressing heterozygous V158/F158 FcγRIIIa (human) (UniProt P08637); assay: cell-based or functional assay

ADCC EC50, DoHH-2 targets, PBMCs	ADCC log(EC50), DoHH-2 targets, PBMCs	Substance
3 ng/mL	0.49	alemtuzumab S239D/I332E (antibody)
4 ng/mL	0.6	alemtuzumab V264I/I332E (antibody)
